# According to patent US7772181B2, “Personal care compositions comprising modified variant Bowman Birk Protease Inhibitors” (Danisco US Inc., priority 2008, dated 2010):
# Marks after values point to notes of the source that are not given here.
# T1: bovine pancreatic trypsin (Bos taurus, UniProt P00760)
# T1 construct: purchased Worthington (Worthington Biochemical Corp.)
# T1 sequence (P00760 24-246): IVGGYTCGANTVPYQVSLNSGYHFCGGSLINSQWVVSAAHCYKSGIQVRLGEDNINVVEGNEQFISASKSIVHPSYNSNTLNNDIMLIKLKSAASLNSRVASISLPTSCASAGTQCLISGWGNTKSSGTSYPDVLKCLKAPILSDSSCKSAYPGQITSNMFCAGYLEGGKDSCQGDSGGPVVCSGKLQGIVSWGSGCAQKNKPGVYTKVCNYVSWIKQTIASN
# Columns and labels:
# [1] = molecular target: T1, bovine pancreatic trypsin; assay: Shake flask screen: trypsin inhibition after growth, 2-mercaptoethanol activation and acid/heat treatment; format: biochemical; conditions: for BBIt-AV yield after acid/heat treatment relative to unmodified BBIt-AV: activated with 2-mercaptoethanol
# Procedure: To increase expression, the gene copy of the selected clones was amplified by sequentially streaking colonies on Luria agar plates with 25 μg/ml chloramphenicol until the growth rate was similar to growth on Luria agar plates without chloramphenicol. Cultures of the selected variants and controls were grown in 3 ml Luria broth with 25 μg/ml chloramphenicol in 15 ml tubes for ˜10 h. These cultures (30 μl) were then used to inoculate 30 ml of MBD medium in 250 ml baffled shake flasks and grown at 37° C. and 225 rpm for ˜60 h.
# For selection of the variants with the best yields, the culture broths were processed as follows. The broth was first activated by mixing 20 ml of broth with 20 ml of 0.25 M glycine buffer (pH 9.3) and the pH was adjusted to 9.0 with 50% NaOH. Then, 2-mercaptoethanol was added to the diluted cultures to a final concentration of 2 mM and the cultures were incubated overnight at room temperature with gentle shaking. The BBIt-AV moiety was then cleaved from the fusion protein by acid/heat treatment, which was accomplished by first adjusting the pH of the activated broth to pH 1.9-2.0 with sulfuric acid, and followed by incubation at 60° C. for 16 hours, with shaking. The BBIt-AV-BCE fusion protein and the BCE catalytic domain are not soluble at pH 2, whereas the free BBI species is soluble. After the cleavage reaction, the insoluble material was removed by centrifugation (5 min. at 3,000 rpm) and the supernatant was analyzed for trypsin inhibitory activity as described above. The BBI activity was also determined for the starting material and for the samples taken after activation. The BCE activity of the starting material was also determined as described above. The BBIt-AV:BCE activity ratios were then calculated for each step in process. The modified BBIt-AVs produced at the highest yields following the acid/heat treatment were selected for further study.
# [2] = molecular target: T1, bovine pancreatic trypsin; assay: BBIt-AV:BCE activity ratio, microtiter plate screens (primary, quadruplicate secondary); format: biochemical; conditions: single substitution in BBIt-AV, in the presence of reducing agent
# Procedure: The cultures in each master plate were thawed and a pin replicator was used to inoculate a new sterile microtiter plate containing 150 μl of Luria broth with 5 μg/ml chloramphenicol in each well. The plates were grown for ˜10 hrs in a humidified and aerated box as described above. For controls, the cultures in two wells were replaced with BBI and BBI-AV cultures that had been grown concurrently in 15 ml culture tubes (5 ml of Luria broth with 5 μg/ml chloramphenicol). After the cultures were grown, the plate was used to inoculate two duplicate 96-well filter plates (Millipore, MSGV2210) containing 150 μl of MBD medium (Vogtentanz et al., 2007) with 5 μg/ml chloramphenicol in each well by using a pin replicator. The duplicate plates were grown for ˜14 hours (as above, with plastic spacers placed between the stacked plates to allow for efficient air flow around the plates) and then 2-mecaptoethanol was added to each well in one of the plates to a final concentration of 2 mM. The plates were then grown for an additional ˜46 hours. The 96-well filter plates containing the culture broth (with or without added 2-mecaptoethanol) were then assayed for BBI and BCE activity.
# Libraries were analyzed using dilutions of cultures grown in 96-well plates. Typically, the culture broth from each well was diluted (200 fold) in Assay Buffer (100 mM Tris pH 8.6, 0.005% Tween 80) and transferred to a second microtiter plate (CoStar 9017, Corning, Inc., Corning, N.Y.). Then, 20 μl of the diluted samples were transferred to a third microtiter plate. A standard curve was created by adding 20, 10, 5 or 2.5 μl of the diluted sBBI (SEQ ID NO:13) control culture to empty wells. Then, 80 μL of 50 ng/ml trypsin (bovine pancreatic trypsin, Worthington Biochemical Corp., Lakewood, N.J.) (prepared from a 1 mg/mL stock solution diluted into Assay Buffer) was added to each well of the plate. The reactions were mixed and incubated 15 min at room temperature. After the incubation, 100 μL of 0.5 mg/ml trypsin substrate (succinyl-Ala-Ala-Pro-Arg-para-nitroanilide, Bachem Bioscience, Inc., King of Prussia, Pa.), diluted in Assay Buffer from a 100 mg/ml solution in DMSO, was added to each well, mixed, and the absorbance at 405 nm was monitored for 15 min, with 1 time point recorded every 12 sec using a Spectra Max 250 (Molecular Devices). The data points were used to determine the rate for each reaction. The standard curve was generated by plotting the reaction rate versus the BBI volume and was fitted to a four-parameter equation. All data fitting was done using software supplied by the manufacturer (Molecular Devices Corp., Sunnyvale, Calif.). The activity of each BBIt-AV variant was calculated from the standard curve. Thus, the activities of all modified variant proteins were determined relative to the activity in the sBBI control (BBI-WT) culture.
# The concentration of BCE was determined by an activity assay using purified BCE as a standard as described above and by (Vogtentanz et al. 2007). For the analysis of libraries grown in 96-well microtiter plates, 20 μl of culture broth were transferred to each well of a new microtiter plate. A standard curve was created by adding 20, 10, 5 or 2.5 μl of the diluted BBI-WT control culture to these empty wells. Then, 180 μl of the BCE substrate (0.25 μg/ml in Assay Buffer), 4-nitrophenyl β-D-cellobioside (Sigma, St. Louis, Mo.), was added to the plate. The plate was mixed and the absorbance at 405 nm monitored for 15 min, with 1 time point recorded every 12 s using a Spectra Max 250 (Molecular Devices Corp., Sunnyvale, Calif.). The data points were used to determine the rate for each reaction. The standard curve was generated by plotting rate versus culture volume and was fit to a quadratic curve. The BCE concentration in each variant culture was determined relative to the standard control culture. […]
molecule,measurement,setting,value
"M27A: BBIt-AV (SEQ ID NO:187) with single substitution M27A (protein, synthetic BBIt-AV sequence) DDESSKPCCDQCACTKSNPPQCRCSDARLNSCHSACKSCACYNLYGWTCFCVDITDFCYEPCKPSE","yield after acid/heat treatment, better than V52L",[1],about 40%
same,activation level (BBIt-AV:BCE activity ratio after reducing agent),[1]; single substitutions in BBIt-AV,activate to similar levels
"T55K: BBIt-AV (SEQ ID NO:187) with single substitution T55K (protein, synthetic BBIt-AV sequence) DDESSKPCCDQCACTKSNPPQCRCSDMRLNSCHSACKSCACYNLYGWTCFCVDIKDFCYEPCKPSE","relative activity of the amino acid substitution (BBI:BCE activity ratio vs BBIt-AV), amino acid present in BBIdb-AV",[2],K (−)
"I54T: BBIt-AV (SEQ ID NO:187) with single substitution I54T (protein, synthetic BBIt-AV sequence) DDESSKPCCDQCACTKSNPPQCRCSDMRLNSCHSACKSCACYNLYGWTCFCVDTTDFCYEPCKPSE","relative activity of the amino acid substitution (BBI:BCE activity ratio vs BBIt-AV), amino acid present in BBIsb3-AV",[2],T (−)****
"I54M: BBIt-AV (SEQ ID NO:187) with single substitution I54M (protein, synthetic BBIt-AV sequence) DDESSKPCCDQCACTKSNPPQCRCSDMRLNSCHSACKSCACYNLYGWTCFCVDMTDFCYEPCKPSE","relative activity of the amino acid substitution (BBI:BCE activity ratio vs BBIt-AV), amino acid present in BBIdb-AV",[2],M (−)
"V52F: BBIt-AV (SEQ ID NO:187) with single substitution V52F (protein, synthetic BBIt-AV sequence) DDESSKPCCDQCACTKSNPPQCRCSDMRLNSCHSACKSCACYNLYGWTCFCFDITDFCYEPCKPSE","relative activity of the amino acid substitution (BBI:BCE activity ratio vs BBIt-AV), amino acid present in BBItc-AV",[2],F (+/−)
"K37S: BBIt-AV (SEQ ID NO:187) with single substitution K37S (protein, synthetic BBIt-AV sequence) DDESSKPCCDQCACTKSNPPQCRCSDMRLNSCHSACSSCACYNLYGWTCFCVDITDFCYEPCKPSE","relative activity of the amino acid substitution (BBI:BCE activity ratio vs BBIt-AV), amino acid present in BBIdb-AV",[2],S (+/−)
"S65E: BBIt-AV (SEQ ID NO:187) with single substitution S65E (protein, synthetic BBIt-AV sequence) DDESSKPCCDQCACTKSNPPQCRCSDMRLNSCHSACKSCACYNLYGWTCFCVDITDFCYEPCKPEE",BBIt-AV yield after acid/heat treatment relative to unmodified BBIt-AV,[1],improved yields after acid/heat treatment
"T55N: BBIt-AV (SEQ ID NO:187) with single substitution T55N (protein, synthetic BBIt-AV sequence) DDESSKPCCDQCACTKSNPPQCRCSDMRLNSCHSACKSCACYNLYGWTCFCVDINDFCYEPCKPSE","relative activity of the amino acid substitution (BBI:BCE activity ratio vs BBIt-AV), amino acid present in BBIsb3-AV",[2],N (+/−)
"Q11G: BBIt-AV (SEQ ID NO:187) with single substitution Q11G (protein, synthetic BBIt-AV sequence) DDESSKPCCDGCACTKSNPPQCRCSDMRLNSCHSACKSCACYNLYGWTCFCVDITDFCYEPCKPSE",BBIt-AV yield after acid/heat treatment relative to unmodified BBIt-AV,[1],improved yields after acid/heat treatment
"E60K: BBIt-AV (SEQ ID NO:187) with single substitution E60K (protein, synthetic BBIt-AV sequence) DDESSKPCCDQCACTKSNPPQCRCSDMRLNSCHSACKSCACYNLYGWTCFCVDITDFCYKPCKPSE","relative activity of the amino acid substitution (BBI:BCE activity ratio vs BBIt-AV), amino acid present in BBIsb3-AV",[2],K (+/−)
same,"relative activity of the amino acid substitution (BBI:BCE activity ratio vs BBIt-AV), amino acid present in BBItc-AV",[2],K (+/−)
"S4V: BBIt-AV (SEQ ID NO:187) with single substitution S4V (protein, synthetic BBIt-AV sequence) DDEVSKPCCDQCACTKSNPPQCRCSDMRLNSCHSACKSCACYNLYGWTCFCVDITDFCYEPCKPSE",BBIt-AV yield after acid/heat treatment relative to unmodified BBIt-AV,[1],improved yields after acid/heat treatment
"S5P: BBIt-AV (SEQ ID NO:187) with single substitution S5P (protein, synthetic BBIt-AV sequence) DDESPKPCCDQCACTKSNPPQCRCSDMRLNSCHSACKSCACYNLYGWTCFCVDITDFCYEPCKPSE",BBIt-AV yield after acid/heat treatment relative to unmodified BBIt-AV,[1],improved yields after acid/heat treatment
"S38N: BBIt-AV (SEQ ID NO:187) with single substitution S38N (protein, synthetic BBIt-AV sequence) DDESSKPCCDQCACTKSNPPQCRCSDMRLNSCHSACKNCACYNLYGWTCFCVDITDFCYEPCKPSE",BBIt-AV yield after acid/heat treatment relative to unmodified BBIt-AV,[1],improved yields after acid/heat treatment
"F50V: BBIt-AV (SEQ ID NO:187) with single substitution F50V (protein, synthetic BBIt-AV sequence) DDESSKPCCDQCACTKSNPPQCRCSDMRLNSCHSACKSCACYNLYGWTCVCVDITDFCYEPCKPSE","relative activity of the amino acid substitution (BBI:BCE activity ratio vs BBIt-AV), amino acid present in BBIdb-AV",[2],V (+)
